From the supplement of paper PMC9732359
± gives the uncertainty stated by the source.

Assay: protein stability index of a GFP-peptide fusion (yeast GPS) (PSI 1-4); higher = more stable; sorted into four equal gates, so the index is relative within each strain
Method in brief: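 Mid-log yeast cultures in leucine-free medium, carrying a pooled plasmid library, were sorted into four equal gates by their GFP/Cherry fluorescence ratio. Each plasmid expressed Cherry along with GFP fused upstream of a tiled 17-residue yeast protein peptide. Plasmids recovered from each gate were PCR-amplified and Illumina-sequenced, with reads assigned to strains by barcodes. The protein stability index was obtained by summing each gate's read frequency weighted by its gate number.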

Row | Sequence | protein stability index (doa10∆) | protein stability index (pdr5∆) | protein stability index (san1∆) | protein stability index (ubr1∆)
1 | TSTVNRLNTVTRVHQLM [MCD1] | 3.22 ± 0.12 | 1.49 ± 0.06 | 2.21 ± 0.2 | 2.57 ± 0.094
2 | IQELEDQRDELLEQKKS [ITC1] | 3.21 ± 0.067 | 3.11 ± 0.055 | 3.24 ± 0.045 | 3.31 ± 0.061
3 | DSKLLPKNIEPPLTSQY [SWI3] | 2.89 ± 0.058 | 2.91 ± 0.049 | 2.92 ± 0.041 | 2.92 ± 0.04
4 | DKKHFNNKNKRVTGAGG [RPC53] | 3.15 ± 0.24 | 2.53 ± 0.17 | 3.16 ± 0.27 | 3.31 ± 0.075
5 | FIYKKVLKEKDVPAYNV [SRB8] | 2.99 ± 0.086 | 3.05 ± 0.062 | 2.95 ± 0.058 | 3.13 ± 0.042
6 | DEGGAKSLLLNTLNIDN [BRN1] | 3.19 ± 0.077 | 3.16 ± 0.097 | 3.1 ± 0.083 | 3.38 ± 0.075
7 | VDDDQDYVVAPGVNREI [GRR1] | 3.17 ± 0.13 | 3.13 ± 0.15 | 3.31 ± 0.2 | 3.29 ± 0.2
8 | ERPPYILNSYGVLKPDI [SIR2] | 2.83 ± 0.078 | 3.12 ± 0.093 | 3.15 ± 0.053 | 3.15 ± 0.061
9 | NLSLYEATAASHERFFL [CSN12] | 2.35 ± 0.065 | 2.73 ± 0.072 | 2.08 ± 0.12 | 2.62 ± 0.065
10 | MTYKNKLTVCFDDILKV [MED2] | 2.13 ± 0.048 | 2 ± 0.041 | 1.9 ± 0.071 | 2.08 ± 0.033
11 | EMINEQKLPQYIIQGSN [RGR1] | – | 2.96 ± 0.27 | – | 3.15 ± 0.2
12 | KKDRATGDADEPELRVL [RPO21] | 3.53 ± 0.11 | 3.48 ± 0.074 | 3.39 ± 0.06 | 3.43 ± 0.046
13 | KASRKSVGLPSKVASSL [ECM29] | 2.81 ± 0.055 | 2.79 ± 0.066 | 2.69 ± 0.056 | 2.84 ± 0.052
14 | NDANITSNKEGFNSIWK [SSN2] | 3.17 ± 0.077 | 3.26 ± 0.079 | 3.3 ± 0.051 | 3.09 ± 0.069
15 | MSLQHEKVTIAPLVLLS [RPN8] | 1.19 ± 0.035 | 1.28 ± 0.032 | 1.2 ± 0.068 | 1.21 ± 0.031
16 | GQSSVKHEDFVEGISEV [RPT5] | 3.7 ± 0.24 | – | – | 3.41 ± 0.2
17 | GGADQVTRTQQWSMVAQ [SWI1] | 3.15 ± 0.077 | 3.31 ± 0.075 | 3.03 ± 0.063 | 3.07 ± 0.052
18 | PFMLQWGIPLIKELRSK [FAS1] | 1.69 ± 0.069 | 1.63 ± 0.074 | 1.44 ± 0.1 | 1.58 ± 0.049
19 | ENIIQMEMIENRTMDGK [FAS1] | 2.78 ± 0.084 | 2.81 ± 0.11 | 2.81 ± 0.12 | 3.02 ± 0.069
20 | ITKVTENLFSKEEVCQG [YMR129W/POM152] | 2.95 ± 0.085 | 2.77 ± 0.092 | 2.97 ± 0.074 | 3.06 ± 0.082
21 | TRSQFCLNTQRGDSTET [RRI1] | 3.07 ± 0.094 | 3.32 ± 0.094 | 3.22 ± 0.063 | 3 ± 0.076
22 | IAGVITRSKRLSQVYPT [CSN12] | 2.91 ± 0.18 | 2.84 ± 0.11 | 3.11 ± 0.12 | 3.01 ± 0.071
23 | DFTLPEDFAPLLAEEEE [PRP8] | 3.42 ± 0.19 | 3.64 ± 0.22 | 3.23 ± 0.11 | 3.2 ± 0.084
24 | ILRKELSEEKEVIFTDV [MCD1] | 2.66 ± 0.15 | 3.02 ± 0.23 | 2.32 ± 0.12 | 2.73 ± 0.17
25 | QFPEIAYPGKLICPQYG [CSL4] | 2.01 ± 0.054 | 2.11 ± 0.059 | 1.94 ± 0.1 | 2.17 ± 0.053

Row | Sequence | protein stability index (doa10∆) | protein stability index (pdr5∆) | protein stability index (san1∆) | protein stability index (ubr1∆)
26 | QFNAITGLNGSGKSNIL [SMC2] | 3.31 ± 0.17 | 2.99 ± 0.13 | 3.18 ± 0.099 | 3.34 ± 0.067
27 | KRLNFSFVGDYMHDTEL [GRR1] | 2.55 ± 0.065 | 1.89 ± 0.073 | 2.47 ± 0.11 | 3.22 ± 0.085
28 | QLIFRQQTGLVDAITRC [SNU114] | 2.97 ± 0.087 | 2.69 ± 0.058 | 3.04 ± 0.052 | 2.47 ± 0.041
29 | DFITGSYLISHKDSFYD [RPO31] | 2.02 ± 0.066 | 1.94 ± 0.049 | 2.13 ± 0.064 | 1.83 ± 0.045
30 | PINLQNGEEDEVALFSQ [YLR335W/NUP2] | 3.11 ± 0.14 | 3.39 ± 0.17 | 3.22 ± 0.054 | 3.17 ± 0.18
31 | IDQVNELVTISWVQPRI [RPN9] | 3.33 ± 0.069 | 3.28 ± 0.069 | 3.22 ± 0.045 | 3.15 ± 0.067
32 | EDRNESVNIAFAISMGY [ECM29] | 3.02 ± 0.12 | 2.89 ± 0.074 | 2.88 ± 0.055 | 2.82 ± 0.07
33 | DITVHGEQIIVHPVNER [RRP45] | 2.23 ± 0.078 | 2.15 ± 0.1 | 1.82 ± 0.14 | 1.9 ± 0.083
34 | VVLVSGEGERFTVDKKI [SKP1] | 3.53 ± 0.11 | 3.6 ± 0.12 | 3.28 ± 0.075 | 2.97 ± 0.094
35 | ELGTAVGKLFRVGVVSI [RPL30] | 1.31 ± 0.13 | 1.17 ± 0.1 | 1.27 ± 0.23 | 1.29 ± 0.095
36 | KLHHDLKLCLGDHSSVP [YMR129W/POM152] | 2.83 ± 0.058 | 3.09 ± 0.054 | 2.95 ± 0.053 | 2.96 ± 0.042
37 | MQFAKSKTVKVLKTLIE [RPN6] | 1.24 ± 0.071 | 1.43 ± 0.077 | 2.51 ± 0.11 | 2.26 ± 0.093
38 | SWYLNTFDGIRMSSEEV [GRR1] | 2.73 ± 0.061 | 2.1 ± 0.059 | 2.13 ± 0.066 | 2.27 ± 0.043
39 | LPKIKTVRKSIACVLTV [RPL35A] | 1.98 ± 0.28 | 2.79 ± 0.18 | – | 2.17 ± 0.14
40 | KTCAKSVIQLCGGINDS [ECM29] | 3.43 ± 0.26 | – | – | –
41 | KQENSSRFTNVSVIAPE [YMR153W/NUP53] | 2.71 ± 0.065 | 2.54 ± 0.055 | 1.59 ± 0.062 | 2.49 ± 0.033
42 | VDVLGTHSQTGTQQSNM [SIR4] | 3.12 ± 0.18 | 2.91 ± 0.17 | – | 3.2 ± 0.067
43 | FEGVTHRWGTKKLPRKT [RPL3] | 3.31 ± 0.11 | 2.98 ± 0.13 | 3.11 ± 0.082 | 3.34 ± 0.061
44 | GSSNKAVVQTVKGLLNT [YJL039C/NUP192] | 3.27 ± 0.14 | 3.13 ± 0.11 | 2.59 ± 0.11 | 3.07 ± 0.098
45 | KCGSVTVRLIPAPRGSG [RPS2] | 1.35 ± 0.11 | 2.07 ± 0.072 | 1.4 ± 0.17 | 1.99 ± 0.1
46 | ELEMIGGTNEDDFTDAI [YCS4] | – | 3.2 ± 0.18 | 3.39 ± 0.069 | 3.7 ± 0.19
47 | YNLLVKISLHKREYLEV [RPN5] | 1.5 ± 0.1 | 1.21 ± 0.12 | 1.34 ± 0.17 | 1.43 ± 0.092
48 | RKRHQRALKVRNAQAQR [RPS6A] | 3.04 ± 0.14 | 2.96 ± 0.1 | 2.73 ± 0.073 | 2.96 ± 0.13
49 | VEQDEGQCRTELEGSFN [YCS4] | 3.38 ± 0.081 | 3.48 ± 0.098 | 3.12 ± 0.14 | 3.49 ± 0.067
50 | TTVFFSRQKSGLFDSFT [YML031W/NDC1] | 1.49 ± 0.042 | 1.45 ± 0.055 | 1.54 ± 0.11 | 1.55 ± 0.048
